Data taken from patent US20220152108A1.

Biological target: sodium taurocholate co-transporting receptor (NTCP), expressed on HepG2 cells (human) (UniProt Q14973)
Assay: cell-based or functional assay

UniProt Q14973, sequence (Q14973 whole entry): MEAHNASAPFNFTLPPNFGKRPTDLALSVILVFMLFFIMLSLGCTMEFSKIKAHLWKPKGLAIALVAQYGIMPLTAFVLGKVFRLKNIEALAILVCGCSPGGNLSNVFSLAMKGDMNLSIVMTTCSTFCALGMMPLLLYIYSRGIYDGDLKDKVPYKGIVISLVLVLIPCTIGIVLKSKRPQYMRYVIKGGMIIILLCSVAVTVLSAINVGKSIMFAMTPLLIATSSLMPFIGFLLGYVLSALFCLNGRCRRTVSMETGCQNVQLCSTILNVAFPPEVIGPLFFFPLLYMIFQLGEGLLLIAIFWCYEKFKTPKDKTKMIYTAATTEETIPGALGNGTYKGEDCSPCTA

Substance: CAR-PreS1 construct (signal peptide-PreS1-CD8 hinge-CD8 Transmembrane-CD28-4-1BB-CD3zeta-T2A-EGFP), expressed on T cells
- IFN gamma expression of CAR-PreS1 T cells co-cultured with HepG2 cells expressing or lacking NTCP: 3 fold
- degranulation (CD107a expression) of CAR-PreS1 T cells co-cultured with HepG2 cells expressing or lacking NTCP: 2 fold
